The values that follow come from US20240287172A1 (SCIRHOM, published 2024).

For this test, the target named is T1, hiR2-FL-S607R-T7 (human, UniProt Q6PJF5 1-856).
T1 sequence: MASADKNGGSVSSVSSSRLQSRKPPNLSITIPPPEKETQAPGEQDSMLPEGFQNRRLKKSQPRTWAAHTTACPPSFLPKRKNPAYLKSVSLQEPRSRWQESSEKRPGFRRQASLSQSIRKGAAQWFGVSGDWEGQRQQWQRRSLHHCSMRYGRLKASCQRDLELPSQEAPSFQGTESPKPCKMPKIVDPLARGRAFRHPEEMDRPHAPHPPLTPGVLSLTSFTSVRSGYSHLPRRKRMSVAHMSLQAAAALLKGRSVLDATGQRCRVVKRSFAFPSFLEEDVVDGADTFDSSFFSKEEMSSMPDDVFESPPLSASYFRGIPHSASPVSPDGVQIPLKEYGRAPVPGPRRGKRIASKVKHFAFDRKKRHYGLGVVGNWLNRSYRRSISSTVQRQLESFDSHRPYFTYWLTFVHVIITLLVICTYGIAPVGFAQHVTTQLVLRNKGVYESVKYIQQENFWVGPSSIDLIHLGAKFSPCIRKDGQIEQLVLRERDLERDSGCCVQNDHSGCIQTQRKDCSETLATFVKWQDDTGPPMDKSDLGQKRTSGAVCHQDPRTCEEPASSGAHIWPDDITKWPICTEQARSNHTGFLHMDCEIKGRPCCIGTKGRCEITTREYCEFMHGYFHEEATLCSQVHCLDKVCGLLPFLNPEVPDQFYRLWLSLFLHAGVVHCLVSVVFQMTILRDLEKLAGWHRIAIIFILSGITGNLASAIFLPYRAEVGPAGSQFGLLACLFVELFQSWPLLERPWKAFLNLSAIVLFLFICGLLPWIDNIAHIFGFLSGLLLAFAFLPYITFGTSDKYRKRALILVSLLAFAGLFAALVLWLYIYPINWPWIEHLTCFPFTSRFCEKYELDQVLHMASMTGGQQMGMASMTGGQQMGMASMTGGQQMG
Put plainly: FACS, MEF-DKO cells, 3 µg/ml. A digest of the protocol: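 MEF-DKO cells expressing T7-tagged full-length hiR2 point mutants were stained on ice for 1 h with purified antibodies at 3 μg/ml in FACS buffer. Detection used PE-conjugated goat anti-mouse IgG F(ab′)2 (1:100, 1 h on ice), read by flow cytometry; buffer-only wells served as controls.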

Numbering of substitutions follows the chain as printed. A value given as a limit tells only on which side of the number the result lay.

B1: antibody 48 (antibody, V domains shown)
VH: QVQLQQSGTELVRPGTSVKVSCKASGYAFTNYLIEWVKQRPGQGLEWIGVINPGSGFTKYNEKFKGKATLTADKSSSTVYMHLSSLTSEDSAVYFCARGLYRAMDYWGQGTSVTVSS
VL: DIQMTQSPASQSASLGESVTITCLASQTIATWLAWYQQKPGKSPQLLIYGATTLADGVPSRFSGGGSGTKFSFKISSLQAEDFVSYYCQQLYSTPYTFGGGTKLEIK
notes: mouse IgG, kappa light chain; also called clone #48; purified antibody 48
Turning to B1, the “loss of binding vs wild type” value was at least 30%.

B2: antibody 50 (antibody, V domains shown)
VH: B1 VH with T9A, T16A, T30S, V79A, H82Q
VL: B1 VL with A30G, G50A, T52A, T53S, S85N, L91I
notes: mouse IgG, kappa light chain; also called clone #50; purified antibody 50
In the case of B2, the “loss of binding vs wild type” value is at least 30%.
